According to the nanobody polyreactivity screen of Harvey et al. (2022):

Test: yeast display, Sf9 membrane polyspecificity reagent, FACS + sequencing; frameworks hold sequencing errors
How it was run: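 A nanobody's polyreactivity label depends on the gate it was sorted from. Yeast display cells were stained with 10% biotinylated, detergent-solubilized Sf9 membrane reagent for 1 hour at 4 °C, enriched on streptavidin microbeads and sorted by FACS. The low and high (top ~1%) gates were set on anti-HA fluorescence for expression and streptavidin fluorescence for reagent binding.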

Row | Sequence | polyreactivity (PSR sort gate)
1 | QVQLVESGGGLVQAGGSLRLSCAASGRIFTVYAMGWYRQAPGKERELVAAISSSGGSTYYADSLKGRFTISRDNAKNSVFLQMNSLKPEDTAVYYCAKPRTYDKDKYDYWGQCTQVTVSS | high polyreactivity
2 | QVQLQESGGGLVQAGGCLSCTASGTIFGQGDMGWYRQAPGKERELVATINDGASTYYADSVKGRFTISRDKAKNTVYLQKNSLKPDDTAVYYCAVCTDITTYFGYWGQGTQVTVSS | low polyreactivity
3 | QVQLVESGGGLVQAGGSLRLSCAASGFTLWYNGMGWYRQAPGKERELVATISSRGGGSTYYADSVKGRFTISRDNAKNTVYLQMNSLKPEETAVYYCAADAYYLVPTEGDYWGQGTQVTVSS | low polyreactivity
4 | QVQLVESGGGLVQAGGSLRLSCAASGLTFPYYAMGWYRQAPGKERELVASISWSGASTYYADSVKGRSTISRDYAKNTVYLQMNSLKPEDTAVYYCNAGFYGSYDYWGQGTQVTVSS | high polyreactivity
5 | QVQLVESGGGLVQAGGSLRLSCAASGSTCFDYAMGWYRQAPGKERELVAAISRSGDTNYADSVKGRFTISRDNAKNTVYLQMNILKPEDTAVYYCAKDWAYRRHWVGFYYWGQGTQVTVSS | low polyreactivity
6 | QVQLVESGGGLVQAGGSLRLSCAASGFIYWYYAMGWYRQAPGKERELVAAISGTGGTTYYADSVKGRFTISRDNAKNTVYLQMKSLKPEDTAVYYCNDRYDSRRTAIGYDYWGQGTQVTGSS | low polyreactivity
7 | QVQLVESGGGLVQSGGSLRLSCAASGSTSINYAMGWYRQAPGKERELVATISRGGSTTYADSVKGRFTISRDNAKNTVYLQMNSLKPEATAVYYCAKDRYPADEDYWGQGTQVTVSS | low polyreactivity
8 | QVQLVESGGGLVQAGGSLRLSCAASGSIFYRNVMGWYRQAPGKERELVAVITGSGDSTFYADSVKGRFTISRDNAKNTVYLQMNSLKPEDTAVYYCNARQVSGGYYYWGQGTQVTVSW | low polyreactivity
9 | QVQLVESGGGLVQAGGSLRLSSAASGSTFRFNAKGWYRQAPGKERELVARISTIGGNTFYADSVKGRFTISRDNAKNTVYLQMNSLKTEDTAVYYCATTGGPSCRKYVYWGQGTQVTVSS | high polyreactivity
10 | QVQLVESGGGLVQAGGSLRLSCAASGSTFDRNVMGWYRQAPGKERELVAAISFSGGSTYYADSVKGRFTISRDTAKNTVYLQMNSLKPEDTAVYYCAADDGYSYIYAAGDYWGQGTQVTVSS | low polyreactivity
11 | QVQLQESGGGLVQVGVSQRLSCAASGNIFYNYAMGWYRHAQGKEREFDATINHCTSINYADSVKGLFTISRDNAKKTVYLQMNSLKPEDTAVYYCAADLSWTDNLFYWGQGTQVTVSS | low polyreactivity
12 | QVQLVESGGWLVQAGGSLRLSCAASGFIFYRYAMGWYRPAPGKERELDAAISGSGGRTYYADSVKGRFTISRDNAKNTVYLQMNSLKPEDTAVYYCAADKQAYVTDDYWGQGTQVTVSS | high polyreactivity
13 | QVELVESGGGLDQAGGSLRLSCAASGFIFRWYAMGWYRQAPGKERELVAAITRGTRTNYADSVKGRFTISRDNAKNTVYLQMNSLKPEDTAVYYCAADFSRDAYRNYYYWGQGTQVTVSS | high polyreactivity
14 | QVQLVESGGGLVQAGGSLRLSCAASGYIFGYYAMGWYRQAPGKERELVAAIRSGGNTYYADSVKGRFTISRDNAKNTVYLQMNSLKPEDTAVYYCAKRYGRFSDYWGQGTQVTVSS | high polyreactivity
15 | QVQLVESGGGLVQAGGSLRLSCAASGITFTFNAMGWYRQAPGKERELVAAITWSGGSTFYADSVKGRFTISRDNAKNTVDLQMNSLKPEDTAVYYCARDTELYVRWLDYWGQGTQVTVSS | low polyreactivity
16 | QVQLVESGGGLVQAGGSLRLSCAASGFTFYDYDMGWSRQAPGKERELVATITWSGGRTYYADSVKGRFTISRDNAKNTVYLQMNSLKPEDTAVYYCAADEPDRDYGYWGQGTQVTVSS | low polyreactivity
17 | QVQLVESGGGLVQAGGSLRLSCAASGFTFRIYAMGWYRQAPGKERELVAAITSGGRTYYADSVKGRFTISRDNAKNTVYLQMNSLKPEDTAVYYCAALYFTRDRYDYWGQGTQVTVSS | high polyreactivity
18 | QVQLVESGGGLVQAGGSLRLSCAASGFTFNYYVMGWYRQAPGKEREMVSAISRGGGSTYYADSVKGRFTISRDNAKNTVYLQMNSLKPEDTEVYYCAARPYSYLFFYWGQGTQVTVSS | high polyreactivity
19 | QFQLVESGGGLVQAGGSLRLSCAASGSIFLSNAMGWYRQAPGKERELVADIDWTGGDTYYADSVKGRFRISRDNAKNTVYLQMNSLKREDTAVYYCAADYGYRNLRTEYGYWGQGTQVTVSS | low polyreactivity
20 | QVQLVESGGGLVQAGGSLRLSCAPSGRILRGYAMGWYRQAPGKDRELVAAISRRGGSTRYADSVKGRFTISRDNAKNTVYLQMNSLKPEDTAVYYCAPRYHPWCYDYWGQGTQVTVSS | high polyreactivity
21 | QVQLVESGGGLVQAGGSLRLSCAASGIIFTINAMGWYRQAPGKERELVAAISWGTGTTYYADSVKGRFTISRDNAKNTVYLQINSLKPEDTAVYYCAADGYDTYGYWGQGTQVTVSS | low polyreactivity
22 | QLQLVESGGGLVQAGGSLRLSCAASGFTFRWNAMGWYRQAPGKERELLAAITNDDSTYYADSVKGRFTISRDNAKNSVYLQLNSLKPEDTAVYYCNARYGRYLDLDTGVALAGRGYWGQGTQVTVSS | low polyreactivity

Row | Sequence | polyreactivity (PSR sort gate)
23 | QVQLVESGGGLVQAGGSLRLSCAASGRIFSFNAMGWYRQAPGKERELVASGGSTYADSVKGRFTISRDNAKNTVYLQMNSLKPEETAVYYCAADPFYYFPSPFDYWGQGTQVTVSS | low polyreactivity
24 | QVQLVESGGGLVQAGGSLRLSCAASGRIFYGYAMGWYRQAPGKEREFVAAITVSAGSTYYADSVKGRFTISRDNAKNTVYLQMNSLKPEDTAVYYCAAKRYVYPSYRFDYWGKGTQVTVSS | low polyreactivity
25 | QDQLVETGVGLVQAGGSLLLSCAPSAITFRGYAMGWYRQAPGKEREYVAAITSGSSTYYADSVKGRFTISRDNAKNTVYLQMNSLKPEDTAVYYCAAERTKSFKLTRPGSMDYWGQGTQVTVSS | low polyreactivity
26 | QVQIVESGGGLVQAGGSVRLSCAASGRTFYYNAMGWYRQAPGKERELVASISSSDSDTYYADSVKGRFTISRDNAKNTVYLQMNSLKPEDTAVYYCAAEYYWDLTFTRYDYWGQGTQVTVSS | low polyreactivity
27 | QVQLVESGGGLVQAGGSLRLSCAASGFDGYAMGWYRQAPGKERELVAASSWSGSRTYYADSVKGRFTISRDNAKNTVYLQMNSLKPEDTAVYYCNAVLRYSIYPSYSFSYVGYYYWGHGTQVTVSS | high polyreactivity
28 | QVQLVESGGGLVQAGGSLRLSCAASGSILSFNAMGWYRQAPGKERELVAAISRGGSTNYADSVKGRFTISRDNAKNTVYLQMNSLKPEDTAVYYCAAVQYRYSTRWARRAYDYWGQGTQVTVSS | high polyreactivity
29 | QVQLVESGGGLVQAGGSLRLSCAASGSTLRYYGMGWYRQAPGKEREFVATLSWGGGSTYYADSVKGRFTISRDNAKNTVYLQINSLKPEDTAVYYCAASWNGGLFQTKYGYWGQGTQVTVSS | high polyreactivity
30 | QVQLVESGGGLVQAGGSLRLSCDASGRIFNYYAMGWYRQAPGKERELVAAITWNGGNTYYADSVKGRFTISRDNAKNTVYLQMNSLKPEDTAVYYCNAYPWYPGDYWGQGTQVTVSS | high polyreactivity
31 | QVQLVESGGGLVQAGGSLRLSCAASGIIFYWYAMGWYRQAPGKERELVAGIDSDGSTNYADSVKGRFTISRDNAKNTVYLQMNSLKPEDTAVYYCAAVQGYRFYESYYWGQGTQVTVSS | low polyreactivity
32 | QVQLVESGGGLVQAGGSLRLSCAASGSILVEYAMGWYRQAPGKERELVAGISGSTGTTYYADSVKGRFTISRDNAKNTVYLQMNSLKPEDTAVYYCAKLFPVARPQYGYWGQGTQVTVSS | low polyreactivity
33 | QVQLVESGGGLVQAGGSLRLSCAASGRTFEHYSMGWYRQAPGKEREFVAVIDSSDGSTYYADSVKGRFTISRDNAKNTVYLQMNSLKPEDTAVYYCLGGYYYLQYDYWGQGTQVTVSS | low polyreactivity
34 | QVQLVESGGGIVQAGGSLRLSCAASGRIFRIYAMGWYRQAPGKEWELVASISWGGASTYYADSVKGRFTISRDNAKNPVYLQMNSLKPEDTAVYDCAAVGYQGQYDYRSFGSWGQGTQVTVSS | high polyreactivity
35 | QVQLVDSGGGLVQAGGSLRLSCAASGFTFVYYVMGWYRQAPGKERQLVAAINAGGGSTYYADSVKGRFTISRDIAKYTVYLQMNSLKPEDTAVYYCNARVRVRLGRNWSSYYYWGQGTQVTVSS | high polyreactivity
36 | QVQLVESGGGLVQAGGSLRLSCAASGFTFVYYAMGWYRQAPGKERELVAAISGRGGSTYYADSVKGRFTISRDNAKNTVYLQMNSLKPEDTAVYYCATTYSWYYVPDKTHIYYYWGQGTQVTVSS | low polyreactivity
37 | QVQLVESGGGLVQAGGSLRLSCAASGRTLSGYVMGWYRQAPGKERELDAAIDWSGGTTYYADSVKGRFTISRDTAKNTVYVQMNSLKPEDTAVYYCAAEVLSWLYWPYYYWGQGSQVTVSS | high polyreactivity
38 | QVQREESGGGLVQAGGSLRLSCAASGFTFRYYAMGRYRQAPGKERELVAAITWSGGSTYYADSVKGRFTISRDNAKNTVYLQLNSLKPEDTAVYYCNVEAVAWWPEEDYWGQGTQVTVSS | high polyreactivity
39 | QVKLVESGGGLVQAGGSLRLSCAASGRIFGRNTMGWYRQAPGKEREFVATITSGGSTYYADSVKGRFTISRDNAKNTVYLQMNSLKPEDTAVYYFNARGYSWRWYPLTSDYDSWGQGTQVTVSS | high polyreactivity
40 | QVQLVESGGGLVQAGGSLRLSCAASGSTFPFNAMGWYRQAPGKEREFVAVINSGGDSTYYADSVKGRFTISRDNAKNTVYLQMNSLKPEDTAVYYCNAEDTRNDYDYWGQGTQVTVSS | low polyreactivity
41 | QVQLVESGGGLVQAGGSLRLSCAASGRTFWYYAMGWYRQSPGKERELVAVITSGSSTYYADSVKGRFTISRDNAKNTDYLQMTSLKPEDTAVYYCAVGRTYRRYSAASYNYWGQGTQVTVSS | high polyreactivity
42 | QVQLVESGGGLVQAGGSLRLSCAASGFTFRVYAMGWYRQAPGKERELVAAISSGGSTNYADSVKGRFTISRDNAKNTVYLQMNSLKPEDTAVYYCAARTYRWYGPGSYGYWGQGTQVTVSS | high polyreactivity
43 | QVQLVESGGGLVQAGGSLRLSCAASGLIFSYNAMGWYRQAPGKERELVATISYSGGTTYYADSVKGRFTISRDNAKNTVYLQMNSLKPEDTAVYYCAARTLYSPGRPWKWYNYGRYGYWGQGTQVTVSS | high polyreactivity
